Data from the Human Domainome abundance scans (Beltran et al. 2025).
± gives the uncertainty stated by the source.

Assay: abundance fitness (aPCA) (normalised: wild type 0, dead -1); higher = more abundant; growth selection in yeast, the domain comes from the species named
Details: Homo sapiens

Point of comparison: “NEDD4-like E3 ubiquitin-protein ligase WWP2 Q442V, O00308”, abundance fitness 0.093 ± 0.042. Against it:
- NEDD4-like E3 ubiquitin-protein ligase WWP2 Y491H, O00308 — within error, 0.026 ± 0.072
- NEDD4-like E3 ubiquitin-protein ligase WWP2 F472L, O00308 — lower, -0.289 ± 0.052
- NEDD4-like E3 ubiquitin-protein ligase WWP2 V459I, O00308 — lower, -0.106 ± 0.072
- Heterogeneous nuclear ribonucleoprotein U-like protein 2 E35A, Q1KMD3 — within error, 0.036 ± 0.052
- NEDD4-like E3 ubiquitin-protein ligase WWP2 G489M, O00308 — lower, -0.048 ± 0.07
- NEDD4-like E3 ubiquitin-protein ligase WWP2 M452A, O00308 — lower, -0.01 ± 0.048
- NEDD4-like E3 ubiquitin-protein ligase WWP2 P488E, O00308 — within error, 0.018 ± 0.055
- NEDD4-like E3 ubiquitin-protein ligase WWP2 R493K, O00308 — within error, -0.022 ± 0.089
- NEDD4-like E3 ubiquitin-protein ligase WWP2 V463L, O00308 — lower, -0.041 ± 0.035
- NEDD4-like E3 ubiquitin-protein ligase WWP2 T469C, O00308 — lower, -0.078 ± 0.057
- NEDD4-like E3 ubiquitin-protein ligase WWP2 R460G, O00308 — lower, -0.166 ± 0.041
- NEDD4-like E3 ubiquitin-protein ligase WWP2 P448H, O00308 — within error, 0.043 ± 0.046
- NEDD4-like E3 ubiquitin-protein ligase WWP2 T470P, O00308 — lower, -0.906 ± 0.14
- NEDD4-like E3 ubiquitin-protein ligase WWP2 Y454A, O00308 — lower, -0.036 ± 0.056
- NEDD4-like E3 ubiquitin-protein ligase WWP2 K484F, O00308 — lower, -0.24 ± 0.073
- NEDD4-like E3 ubiquitin-protein ligase WWP2 Q485L, O00308 — lower, -0.053 ± 0.035
- NEDD4-like E3 ubiquitin-protein ligase WWP2 D474Q, O00308 — lower, -0.279 ± 0.073
- NEDD4-like E3 ubiquitin-protein ligase WWP2 Y461V, O00308 — lower, -0.529 ± 0.055
- Transcription factor SOX-11 D92T, P35716 — lower, -0.223 ± 0.079
- NEDD4-like E3 ubiquitin-protein ligase WWP2 D474C, O00308 — lower, -0.288 ± 0.057
- NEDD4-like E3 ubiquitin-protein ligase WWP2 T471N, O00308 — lower, -0.81 ± 0.12
- NEDD4-like E3 ubiquitin-protein ligase WWP2 Y491K, O00308 — lower, -0.061 ± 0.064
- Heterogeneous nuclear ribonucleoprotein U-like protein 2 S13D, Q1KMD3 — within error, 0.114 ± 0.067
- NEDD4-like E3 ubiquitin-protein ligase WWP2 Y491Q, O00308 — lower, -0.01 ± 0.051
- NEDD4-like E3 ubiquitin-protein ligase WWP2 I441T, O00308 — lower, 0.009 ± 0.04
- NEDD4-like E3 ubiquitin-protein ligase WWP2 N466K, O00308 — lower, -0.202 ± 0.07
- NEDD4-like E3 ubiquitin-protein ligase WWP2 M440I, O00308 — within error, -0.021 ± 0.076
- NEDD4-like E3 ubiquitin-protein ligase WWP2 D492N, O00308 — lower, -0.137 ± 0.069
- NEDD4-like E3 ubiquitin-protein ligase WWP2 H465Y, O00308 — lower, -0.386 ± 0.064
- NEDD4-like E3 ubiquitin-protein ligase WWP2 R476D, O00308 — lower, -0.297 ± 0.047
- NEDD4-like E3 ubiquitin-protein ligase WWP2 S487E, O00308 — within error, 0.025 ± 0.034
- NEDD4-like E3 ubiquitin-protein ligase WWP2 G449Y, O00308 — lower, -0.205 ± 0.067
- NEDD4-like E3 ubiquitin-protein ligase WWP2 T483P, O00308 — lower, -0.054 ± 0.071
- NEDD4-like E3 ubiquitin-protein ligase WWP2 G478C, O00308 — lower, -0.001 ± 0.039
- NEDD4-like E3 ubiquitin-protein ligase WWP2 T470V, O00308 — lower, -0.263 ± 0.046
- NEDD4-like E3 ubiquitin-protein ligase WWP2 Y491S, O00308 — within error, 0.037 ± 0.038
- Transcription factor SOX-11 M89A, P35716 — within error, 0.098 ± 0.071
- NEDD4-like E3 ubiquitin-protein ligase WWP2 P448W, O00308 — lower, -0.109 ± 0.062
- Transcription factor SOX-11 I79L, P35716 — lower, -0.225 ± 0.058
- NEDD4-like E3 ubiquitin-protein ligase WWP2 D474Y, O00308 — lower, -0.251 ± 0.097
- NEDD4-like E3 ubiquitin-protein ligase WWP2 R493W, O00308 — within error, -0.013 ± 0.071
- NEDD4-like E3 ubiquitin-protein ligase WWP2 A490V, O00308 — lower, -0.05 ± 0.032
- NEDD4-like E3 ubiquitin-protein ligase WWP2 K484I, O00308 — lower, -0.157 ± 0.064
- NEDD4-like E3 ubiquitin-protein ligase WWP2 S487I, O00308 — lower, -0.038 ± 0.074
- NEDD4-like E3 ubiquitin-protein ligase WWP2 Y461W, O00308 — lower, -0.531 ± 0.053
- NEDD4-like E3 ubiquitin-protein ligase WWP2 S456E, O00308 — within error, 0.017 ± 0.035
- NEDD4-like E3 ubiquitin-protein ligase WWP2 L446W, O00308 — lower, -0.435 ± 0.065
- NEDD4-like E3 ubiquitin-protein ligase WWP2 E480R, O00308 — lower, -0.078 ± 0.038
- NEDD4-like E3 ubiquitin-protein ligase WWP2 G489C, O00308 — lower, -0.066 ± 0.031
- NEDD4-like E3 ubiquitin-protein ligase WWP2 T470N, O00308 — lower, -0.383 ± 0.11
- NEDD4-like E3 ubiquitin-protein ligase WWP2 T471F, O00308 — lower, -0.556 ± 0.09
- NEDD4-like E3 ubiquitin-protein ligase WWP2 E451N, O00308 — lower, -0.342 ± 0.065
- Transcription factor SOX-11 S60A, P35716 — within error, 0.15 ± 0.097
- NEDD4-like E3 ubiquitin-protein ligase WWP2 M452V, O00308 — within error, 0.034 ± 0.038
- Transcription factor SOX-11 I99V, P35716 — lower, -0.094 ± 0.05
- NEDD4-like E3 ubiquitin-protein ligase WWP2 N466C, O00308 — lower, -0.169 ± 0.048
- NEDD4-like E3 ubiquitin-protein ligase WWP2 V459G, O00308 — lower, -0.111 ± 0.051
- NEDD4-like E3 ubiquitin-protein ligase WWP2 D464P, O00308 — lower, -0.921 ± 0.15
- NEDD4-like E3 ubiquitin-protein ligase WWP2 F472D, O00308 — lower, -0.319 ± 0.072
- NEDD4-like E3 ubiquitin-protein ligase WWP2 T455Y, O00308 — lower, -0.62 ± 0.07
- NEDD4-like E3 ubiquitin-protein ligase WWP2 R493T, O00308 — within error, 0.002 ± 0.056
- NEDD4-like E3 ubiquitin-protein ligase WWP2 E443D, O00308 — lower, -0.06 ± 0.075
- NEDD4-like E3 ubiquitin-protein ligase WWP2 R476Y, O00308 — lower, -0.369 ± 0.05
- NEDD4-like E3 ubiquitin-protein ligase WWP2 G449S, O00308 — lower, -0.17 ± 0.029
- NEDD4-like E3 ubiquitin-protein ligase WWP2 K473F, O00308 — within error, 0.102 ± 0.082
- NEDD4-like E3 ubiquitin-protein ligase WWP2 E451W, O00308 — lower, -1.18 ± 0.18
- NEDD4-like E3 ubiquitin-protein ligase WWP2 S456Y, O00308 — lower, -0.589 ± 0.12
- NEDD4-like E3 ubiquitin-protein ligase WWP2 G482I, O00308 — lower, -0.077 ± 0.046
- Transcription factor SOX-11 K91T, P35716 — within error, 0.151 ± 0.056
- Transcription factor SOX-11 M110L, P35716 — lower, -0.068 ± 0.053
- NEDD4-like E3 ubiquitin-protein ligase WWP2 G486C, O00308 — lower, -0.023 ± 0.056
- NEDD4-like E3 ubiquitin-protein ligase WWP2 S481E, O00308 — within error, 0.022 ± 0.071
- NEDD4-like E3 ubiquitin-protein ligase WWP2 D464Q, O00308 — lower, -0.508 ± 0.075
- NEDD4-like E3 ubiquitin-protein ligase WWP2 G482H, O00308 — within error, -0.019 ± 0.076
- NEDD4-like E3 ubiquitin-protein ligase WWP2 P475M, O00308 — lower, -0.574 ± 0.062
- Heterogeneous nuclear ribonucleoprotein U-like protein 2 A39E, Q1KMD3 — lower, -0.015 ± 0.064
- NEDD4-like E3 ubiquitin-protein ligase WWP2 S481Q, O00308 — lower, -0.014 ± 0.039
- NEDD4-like E3 ubiquitin-protein ligase WWP2 F462S, O00308 — lower, -1.04 ± 0.051
- NEDD4-like E3 ubiquitin-protein ligase WWP2 T455S, O00308 — lower, -0.115 ± 0.041
- NEDD4-like E3 ubiquitin-protein ligase WWP2 G449N, O00308 — within error, 0.119 ± 0.065
- NEDD4-like E3 ubiquitin-protein ligase WWP2 S481V, O00308 — lower, -0.151 ± 0.056
- NEDD4-like E3 ubiquitin-protein ligase WWP2 L446H, O00308 — lower, -0.641 ± 0.12
- NEDD4-like E3 ubiquitin-protein ligase WWP2 F462V, O00308 — lower, -0.939 ± 0.037
- NEDD4-like E3 ubiquitin-protein ligase WWP2 G478W, O00308 — lower, -0.017 ± 0.032
- NEDD4-like E3 ubiquitin-protein ligase WWP2 D474L, O00308 — lower, -0.326 ± 0.061
- NEDD4-like E3 ubiquitin-protein ligase WWP2 Q485A, O00308 — lower, -0.036 ± 0.039
- NEDD4-like E3 ubiquitin-protein ligase WWP2 H465E, O00308 — lower, -0.396 ± 0.062
- NEDD4-like E3 ubiquitin-protein ligase WWP2 A445S, O00308 — within error, 0.04 ± 0.048
- NEDD4-like E3 ubiquitin-protein ligase WWP2 T455V, O00308 — lower, -0.678 ± 0.05
